Here are results for 1 sequence from paper PMC4222680.

For data set [1], the target named is TDG G199S G199S (human (rs4135113 variant)) (UniProt Q13569). Put plainly: EMSA. As to conditions: tetrahydrofuran abasic analog (X, written N) at position 17 of strand 2, opposite A12 of strand 1; 20 mM HEPES pH 7.3, 1 mM EDTA, 10 mM (NH4)2SO4, 1 mM DTT, 0.2% Tween-20, 30 mM KCl; 2 nM DNA, 30 min at room temperature; 6% native PAGE at 4 C. Background: A gel shift assay detects complexes by their altered migration in electrophoresis.
TDG G199S G199S (human (rs4135113 variant)), sequence (Q13569 whole entry G199S): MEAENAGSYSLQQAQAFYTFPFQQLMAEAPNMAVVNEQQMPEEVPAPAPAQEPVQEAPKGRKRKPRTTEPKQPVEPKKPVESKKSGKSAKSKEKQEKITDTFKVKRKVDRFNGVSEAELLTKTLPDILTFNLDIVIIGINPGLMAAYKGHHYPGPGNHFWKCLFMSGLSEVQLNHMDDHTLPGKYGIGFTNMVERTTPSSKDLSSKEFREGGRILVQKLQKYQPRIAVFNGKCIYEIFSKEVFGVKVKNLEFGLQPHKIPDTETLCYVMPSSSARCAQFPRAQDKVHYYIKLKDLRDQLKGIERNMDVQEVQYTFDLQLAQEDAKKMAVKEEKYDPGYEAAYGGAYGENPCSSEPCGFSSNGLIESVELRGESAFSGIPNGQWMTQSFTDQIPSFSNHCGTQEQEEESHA

A further data set deals with TDG WT (human) (UniProt Q13569). Nature of the data set: EMSA. The note with it: tetrahydrofuran abasic analog (X, written N) at position 17 of strand 2, opposite A12 of strand 1; 20 mM HEPES pH 7.3, 1 mM EDTA, 10 mM (NH4)2SO4, 1 mM DTT, 0.2% Tween-20, 30 mM KCl; 2 nM DNA, 30 min at room temperature; 6% native PAGE at 4 C.
TDG WT (human), sequence (Q13569 whole entry): as the sequence (Q13569 whole entry G199S) above, with S199G counted along it

With “CAGCTCTGTACATGAGCAGTGGTGACAC / GTGTCACCACTGCTCANGTACAGAGCTG [28-mer THF:A]”, the results for the Kd (in data set [1]; with TDG WT (human)) were 35 nM and 153 nM, respectively.
